According to paper PMC11500311, “Binding of a single nitric oxide molecule is sufficient to disrupt DNA binding of the nitrosative stress regulator NsrR†” (Chemical Science, 2024):

Experiments:
[1] = molecular target: T1, holo NsrR ([4Fe-4S] in each subunit) (Streptomyces coelicolor, UniProt Q9L132 1-148); experiment: native MS; 100 mM ammonium acetate pH 8; relative affinity; SPR: 10 mM HEPES, 150 mM NaCl, 0.05% polysorbate 20, pH 7.4, 25 C, anaerobic; native MS: 100 mM ammonium acetate pH 8 (30 C for nitrosylation); conditions: protein: recombinant; tags: none; chain copies: 2; blunt
T1 sequence: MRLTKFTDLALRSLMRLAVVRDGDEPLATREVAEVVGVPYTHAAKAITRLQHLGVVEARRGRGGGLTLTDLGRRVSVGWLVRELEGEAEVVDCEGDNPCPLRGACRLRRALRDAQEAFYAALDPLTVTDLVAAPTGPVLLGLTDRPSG

[2] = molecular target: T1, holo NsrR ([4Fe-4S] in each subunit); experiment: native MS; about equal free and DNA-bound holo NsrR before NO; SPR: 10 mM HEPES, 150 mM NaCl, 0.05% polysorbate 20, pH 7.4, 25 C, anaerobic; native MS: 100 mM ammonium acetate pH 8 (30 C for nitrosylation); conditions: protein: recombinant; tags: none; chain copies: 2; blunt
[3] = molecular target: the molecule itself; experiment: native MS; as-isolated and reconstituted NsrR, 8 μM [4Fe–4S], ionised from 100 mM ammonium acetate pH 8.0, positive-mode ESI, no DNA

B1: hmpA1 22 bp native MS (dsDNA)
DNA 1: AACACGAATATCATCTACCAAT
DNA 2: ATTGGTAGATGATATTCGTGTT
- Kd [1]: 3000 ± 100 nM

B2: hmpA2 23 bp native MS (dsDNA)
DNA 1: AACAAGCATCTGAGATCCCAGTT
DNA 2: AACTGGGATCTCAGATGCTTGTT
- binding result [2]: binds

B3: NsrR from Streptomyces coelicolor, non-tagged (natural protein)
chain: T1 sequence
notes: NsrR, Rrf2-family transcriptional regulator of Streptomyces coelicolor A3, locus SCO7427; non-tagged construct from pNsrR; Homodimer; Each subunit can carry a [4Fe–4S] cluster: two clusters per dimer is holo, one is hemi-apo, none is apo; All three forms were observed as dimers by native MS (32 608, 32 257 and 31 907 Da); also called non-tagged NsrR; [4Fe–4S]; NsrR; source: E. coli BL21 λDE3 …
- stoichiometry N [3]: 2
